The record followed here is PMC3818223, “A RhoC Biosensor Reveals Differences in the Activation Kinetics of RhoA and RhoC in Migrating Cells” (PLoS ONE, 2013).

The target of assay [1] is T1, RhoC Q63L, full length, as the C-terminal module of the RhoC FLARE.sc biosensor (UniProt P08134 1-193, Q63L).
T1 construct: RhoC GTPase, full length, with Q63L; On one chain with m1, as m2; also called constitutively active mutant; source: HEK293T, transfected (Lipofectamine2000), in live cell suspension; not shown: monomeric Venus, N-terminal, kept
T1 sequence (P08134 whole entry Q63L): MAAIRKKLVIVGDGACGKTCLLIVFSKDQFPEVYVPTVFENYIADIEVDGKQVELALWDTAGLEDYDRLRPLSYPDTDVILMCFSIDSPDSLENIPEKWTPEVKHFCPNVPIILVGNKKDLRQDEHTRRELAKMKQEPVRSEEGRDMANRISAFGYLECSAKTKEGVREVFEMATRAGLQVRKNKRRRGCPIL
Description: FRET or BRET; intramolecular FRET of the single-chain biosensor (binding domain-mCerulean-linker-mVenus-RhoC); fluorometry of cold, live HEK293T cell suspensions in PBS 48 h after transfection, excitation 433 nm, emission 450-600 nm, FRET/CFP ratio. To be noted: partners not purified.

Assay [2] addresses T2, RhoC G14V, full length, as the C-terminal module of the RhoC FLARE.sc biosensor (UniProt P08134 1-193, G14V).
T2 construct: RhoC GTPase, full length, with G14V; On one chain with m1, as m2; also called constitutively active mutant; source: HEK293T, transfected (Lipofectamine2000), in live cell suspension; not shown: monomeric Venus, N-terminal, kept
The description is as above. The conditions noted are these: partners not purified.

T2 sequence (P08134 whole entry G14V): as the sequence (P08134 whole entry Q63L) above, with G14V, L63Q counted along it

B1: ROCK1 Rho binding domain (RBD, amino acids 905-1046), as the N-terminal module of the RhoC FLARE.sc biosensor (domain or fragment, UniProt Q13464 905-1046, looked up)
chain: ARGLLEEQYFELTQESKKAASRNRQEITDKDHTVSRLEEANSMLTKDIEILRRENEELTEKMKKAEEEYKLEKEEEISNLKAAFEKNINTERTLKTQAVNKLAEIMNRKDFKIDRKKANTQDLRKKEKENRKLQLELNQERE
notes: It is split from RhoC here so that the intramolecular pair can be written; Subcloned into pTriEX-HisMyc4 (Novagen), which may add His and Myc tags; source: HEK293T, transfected (Lipofectamine2000), in live cell suspension; not shown: monomeric Cerulean, C-terminal, kept
As for B1, the “increase in FRET ratio against the T19N biosensor” value in assay [1] and in assay [2] was 41% each time.
